From article doi:10.1101/498865 (2018) come the findings set out here.

The target of test [1] is T1, Cam1 (fission yeast calmodulin), amino-terminally acetylated (S. pombe, UniProt P05933 1-150, amino-terminal (Nt) acetylation). Nature of the test: FRET.
Test [2] addresses T1, Cam1 (fission yeast calmodulin), …. Nature of the test: FRET; second site (Kd2).
Test [3] shares this target. The experiment in a line: FRET; first site (Kd1; <0.1 uM).

T1 sequence (P05933 whole entry): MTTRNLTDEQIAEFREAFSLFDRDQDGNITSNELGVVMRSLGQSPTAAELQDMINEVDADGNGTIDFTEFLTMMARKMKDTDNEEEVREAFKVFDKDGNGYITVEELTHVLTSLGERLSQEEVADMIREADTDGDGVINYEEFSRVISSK

B1: CyPet-Myo1^IQ1-YPet FRET reporter protein (domain or fragment)
chain: DTMATRIQRAWRSYVRRRSEA
In the case of B1, the Kd (in general, a measure of binding affinity in units of concentration) in test [1] stood at 60 nM.

B2: CyPet-Myo1^IQ12-S742D-YPet FRET reporter protein (domain or fragment)
chain: CyPet-DTMATRIQRAWRSYVRRRDEAAACIQKLWNRNKVNMELERVRNEGTK-YPet
modifications: not fully specified
In the case of B2, the Kd in test [2] came to 540 nM; in test [3], 90 nM.

B3: CyPet-Myo1^IQ12-YPet FRET reporter protein (domain or fragment)
chain: DTMATRIQRAWRSYVRRRSEAAACIQKLWNRNKVNMELERVRNEGTK
Take B3: binding in test [3] was characterised by a dissociation constant (Kd) of 40 nM.
